Source: IntAct's records for PubMed 17681130

B1: Protein BRASSINAZOLE-RESISTANT 1 (Arabidopsis thaliana (Mouse-ear cress)), Q8S307 (parent)
chain: MTSDGATSTSAAAAAAAAAAARRKPSWRERENNRRRERRRRAVAAKIYTGLRAQGDYNLPKHCDNNEVLKALCVEAGWVVEEDGTTYRKGCKPLPGEIAGTSSRVTPYSSQNQSPLSSAFQSPIPSYQVSPSSSSFPSPSRGEPNNNMSSTFFPFLRNGGIPSSLPSLRISNSCPVTPPVSSPTSKNPKPLPNWESIAKQSMAIAKQSMASFNYPFYAVSAPASPTHRHQFHTPATIPECDESDSSTVDSGHWISFQKFAQQQPFSASMVPTSPTFNLVKPAPQQMSPNTAAFQEIGQSSEFKFENSQVKPWEGERIHDVGMEDLELTLGNGKARG
partner: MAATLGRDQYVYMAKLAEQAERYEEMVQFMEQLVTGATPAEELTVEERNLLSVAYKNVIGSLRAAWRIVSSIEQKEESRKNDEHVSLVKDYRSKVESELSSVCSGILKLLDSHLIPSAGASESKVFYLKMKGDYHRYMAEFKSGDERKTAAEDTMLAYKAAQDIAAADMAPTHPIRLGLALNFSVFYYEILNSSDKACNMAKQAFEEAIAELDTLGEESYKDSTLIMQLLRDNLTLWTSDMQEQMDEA

Variants of: B1
Conditions: with 14336_arath GRF6, P48349

effect of a mutation on the interaction	Variant
decreasing interaction	S173A
